Measurements published in patent US20100150902A1 (published 2010).
Substitutions are numbered along the chain they refer to. Each block holds one binder with its values, some of them ahead of it.

What was measured:
human CD151 protein [1] = molecular target: T1, human CD151 protein (human, UniProt P48509 1-253); experiment: flow cytometry, 10 µg/ml antibody on A549 cells
T1 construct: whole, on cells; in HT-29 cell lysate in the Western blots; also called PETA-3; SFA-1
T1 sequence (looked up): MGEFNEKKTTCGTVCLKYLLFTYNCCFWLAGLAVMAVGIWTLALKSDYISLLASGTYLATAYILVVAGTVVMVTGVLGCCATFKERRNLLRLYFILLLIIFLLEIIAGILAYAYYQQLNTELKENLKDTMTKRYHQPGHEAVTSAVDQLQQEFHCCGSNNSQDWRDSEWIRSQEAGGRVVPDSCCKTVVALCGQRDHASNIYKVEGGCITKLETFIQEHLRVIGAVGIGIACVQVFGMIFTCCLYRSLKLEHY
Protocol: (§1) The flow cytometry analyses are carried out on 96-well plates. The undiluted hybridoma supernatants are added to 100000 PC3 cells previously introduced into the wells. After incubation for 20 minutes at +4° C. followed by washing, an Alexa488-labelled goat anti-mouse IgG polyclonal antibody (Molecular Probes, dilution to 1/500) is added. The fluorescence intensity (MFI) is determined with the aid of a cytofluorimeter after further incubation for 20 minutes at +4° C.
(§2) The isotypes of the antibodies produced were determined for each culture supernatant using a murine antibody isotyping kit (SBA clonotyping system, Southern Biotech), and then final characterisation was carried out by ELISA (extracellular loop EC2) and by flow cytometry on the murine line NIH 3T3 and the stable transfectant NIH 3T3-CD151, and then on human tumour lines of lung cancer A549, prostate cancer DU145 and pancreatic cancer BxPC3 under the conditions previously described. The antibody concentration of the supernatants was adjusted to 5 μg/ml for the ELISA and to 10 μg/ml for the flow cytometry analyses.

human CD151 protein [2] = molecular target: T1, human CD151 protein; experiment: flow cytometry, 10 µg/ml antibody on BxPC3 cells
Protocol: as §1, §2

human CD151 protein [3] = molecular target: T1, human CD151 protein; experiment: flow cytometry, 10 µg/ml antibody on DU145 cells
Protocol: as §1, §2

human CD151 protein [4] = molecular target: T1, human CD151 protein; experiment: flow cytometry, undiluted hybridoma supernatant on PC3 cells
Protocol: as §1

human CD151 protein [5] = molecular target: T1, human CD151 protein; experiment: flow cytometry, 10 µg/ml antibody on NIH3T3-CD151 transfectant cells
Protocol: as §1, §2

[6] = molecular target: T2, recombinant extracellular loop EC2 of human CD151 (amino acids 130 to 221, C-terminal Poly-His tail) (human, UniProt P48509 130-221); experiment: ELISA, clone supernatant at 5 µg/ml antibody on coated recombinant EC2 loop
T2 construct: range 130-221; Expressed in soluble form in the periplasm of E. coli from pET22b and purified by IMAC; also called recombinant EC2; recombinant EC2 loop; not shown: Poly-His tail at the C-terminal position
T2 sequence (looked up): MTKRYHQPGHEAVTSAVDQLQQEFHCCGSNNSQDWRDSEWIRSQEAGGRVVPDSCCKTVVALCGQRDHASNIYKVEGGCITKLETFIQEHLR

[7] = molecular target: T2, recombinant extracellular loop EC2 of …; experiment: ELISA, undiluted hybridoma supernatant on coated recombinant EC2 loop (5 µg/ml)
Protocol: For the ELISA, 96-well plates are sensitised for 1 night at +4° C. with the recombinant extracellular loop EC2 at 5 μg/ml in PBS. After washing with PBS, the wells are saturated with 0.5% gelatin solution in PBS for 1 hour at 37° C. and then washed again with PBS. The hybridoma culture supernatants are evaluated without dilution (incubation for 1 hour at 37° C.). The antibodies fixed to the immobilised EC2 loop are detected by successive incubation with a peroxidase-conjugated goat anti-mouse IgG polyclonal antibody (Jackson/USA, dilution to 1/5000, 1 hour at 37° C.) and then with a peroxidase substrate (TMB, Interchim/France, 10 minutes at ambient temperature). The reaction is stopped by addition of 1M sulfuric acid and the optical density (OD) is measured at 450 nm.

human CD151 protein [8] = molecular target: T1, human CD151 protein; experiment: saturation binding of 125I-labelled antibody to PC3 cells, 1 hour at 4°C, Scatchard analysis
Protocol: The affinity of the 2 radiolabelled antibodies for their CD151 target on the cell surface was then measured for PC3 prostate cancer cells. The dissociation constant KD of the antibodies was determined by the method of Scatchard. […] After incubation, the total radioactivity associated with the cells (fixed radiolabelled antibody) was measured using a gamma counter. The non-specific fixing was determined, for each concentration tested, in the presence of an excess of non-radiolabelled antibody (×100). The specific fixing is calculated by subtracting the non-specific radioactivity from the total radioactivity.

[9] = molecular target: T2, recombinant extracellular loop EC2 of …; experiment: competition ELISA on coated recombinant EC2; competitor murine 203B6 at 80 ng/ml, detected with anti-mouse IgG
Protocol: (§3) Briefly, 96-well ELISA plates were coated with recombinant EC2 at 5 μg/ml in PBS overnight at 4° C. […] For control experiments, no murine antibody was added. Horseradish peroxidase-conjugated polyclonal goat anti-mouse IgG was added at a 1/5000 dilution in PBS and incubated for 1 h at 37° C. After incubation with the peroxidase substrate TMB for 10 min at room temperature, the reaction was stopped with 1 M sulfuric acid and the optical density at 450 nm was measured.

[10] = molecular target: T2, recombinant extracellular loop EC2 of …; experiment: competition ELISA on coated recombinant EC2; competitor murine 214B2 at 80 ng/ml, detected with anti-mouse IgG
Protocol: as §3

B1: murine monoclonal antibody 203B6 (hybridoma CNCM I-3920) (antibody, mouse IgG1, V domains shown)
VH: EVKLVESGGGLVQPGGSLKLSCAASGFTFSTYTMSWVRQTPEKRLEWVAYISSGGGTTYYPDTVKGRFTISRDNARNTLYLQMNSLKSEDTAMYYCATPRIGTGFAYWGQGTLVTVSA
VL: DIVLSQSPASLALSLGQRATISCRASASVEYYGTSLMHWYQQKPGQPPKLLIYEASNVESGVPARFSGSGSGTDFSLNIHPVEEDDLAIYFCQQSRKAPYTFGGGTKLEIK
notes: also called 203B6 cl1A; [125I]-203B6
- MFI (human CD151 protein [1]): 675 MFI
- MFI (human CD151 protein [2]): 768 MFI
- MFI (human CD151 protein [3]): 860 MFI
- MFI (human CD151 protein [4]): 975 MFI
- MFI (human CD151 protein [5]): 540 MFI
- OD at 450 nm [6]: 2.22 OD at 450 nm
- OD 450 nm [7]: 1.13 OD 450 nm
- Kd (human CD151 protein [8]): 12.8 nM

B2: chimeric antibody c203B6[IgG1] (antibody, V domains shown)
VH: B1 VH
VL: DIVLSQSPASLALSLGQRATISCRASASVEYYGTSLMHWYQQKPGQPPKLLIYEASNVESGVPARFSGSGSGTDFSLNIHPVEEDDLAIYFCQQSRKAPYTFGGGTKLEIKR
notes: Variable domains of murine 203B6 fused to human Ckappa and human IgG1 constant domains; made in HEK293/EBNA cells; VL' and 'IgG1 Chim
- IC50 [9]: 0.71 µg/mL

B6: chimeric antibody c214B2[IgG1] (antibody, V domains shown)
VH: QVQLQQPGSVLVRPGASVKLSCKASGYTFTSSSMHWAKQRPGQGLEWIGEIHPNSGNTNNNEKFKGKATLTVDTSSSTAYVDLSSLSSEDSAVYYCARARSFYYAMDCWGQGTSVTVSS
VL: NIVMTQSPKSMSMSVGERVTLSCKASENVGTYVSWYQQKPEQSPKLLIYGASNRYTGVPDRFTGSGSATDFTLTISSVQAEDLADYHCGQTYSFPYTFGGGTKLEIKR
notes: Variable domains of murine 214B2 fused to human Ckappa and human IgG1 constant domains; made in HEK293/EBNA cells; VL' and 'IgG1 Chim
- IC50 [10]: 0.69 µg/mL

Second part, the binder after the results:

- MFI (human CD151 protein [1]): 481 MFI
- MFI (human CD151 protein [2]): 536 MFI
- MFI (human CD151 protein [3]): 524 MFI
- MFI (human CD151 protein [4]): 936 MFI
- MFI (human CD151 protein [5]): 556 MFI
- OD at 450 nm [6]: 2.3 OD at 450 nm
- OD 450 nm [7]: 0.959 OD 450 nm
B3: murine monoclonal antibody 211F3 (hybridoma CNCM I-3918) (antibody, mouse IgG1, V domains shown)
VH: B1 VH with G10D, G56V, V64I, R76K, Y80F, A97T, T98S, I101T
VL: B1 VL with S5T, E30D, H38Q
notes: also called 211F3 cl1A

- MFI (human CD151 protein [1]): 388 MFI
- MFI (human CD151 protein [2]): 350 MFI
- MFI (human CD151 protein [3]): 584 MFI
- MFI (human CD151 protein [4]): 595 MFI
- MFI (human CD151 protein [5]): 332 MFI
- OD at 450 nm [6]: 1.84 OD at 450 nm
- OD 450 nm [7]: 0.649 OD 450 nm
B4: murine monoclonal antibody 205H8 (hybridoma CNCM I-3921) (antibody, mouse IgG3, V domains shown)
VH: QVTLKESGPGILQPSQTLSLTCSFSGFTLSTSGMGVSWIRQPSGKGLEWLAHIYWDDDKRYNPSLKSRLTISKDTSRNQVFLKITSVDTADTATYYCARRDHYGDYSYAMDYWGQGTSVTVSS
VL: DIVMTQSQKFMSTSEGDRVSITCKASQNVGIAVAWYQQKPGQSPKLLIYSASNRYTGVPDRFTGSGSGTDFTLTISNMQSEDLADYFCQQYSSNPTFGAGTKLELK
notes: also called 205H8 cl1A

- MFI (human CD151 protein [1]): 820 MFI
- MFI (human CD151 protein [2]): 849 MFI
- MFI (human CD151 protein [3]): 1330 MFI
- MFI (human CD151 protein [4]): 1000 MFI
- MFI (human CD151 protein [5]): 748 MFI
- OD at 450 nm [6]: 2.48 OD at 450 nm
- OD 450 nm [7]: 0.684 OD 450 nm
- Kd (human CD151 protein [8]): 6.38 nM
B5: murine monoclonal antibody 214B2 (hybridoma CNCM I-3919) (antibody, mouse IgG1, V domains shown)
VH: B6 VH
VL: NIVMTQSPKSMSMSVGERVTLSCKASENVGTYVSWYQQKPEQSPKLLIYGASNRYTGVPDRFTGSGSATDFTLTISSVQAEDLADYHCGQTYSFPYTFGGGTKLEIK
notes: also called 214B2 cl1A; [125I]-214B2
